For orientation: stoichiometry N means a count of units in the complex or per binding partner.

Five molecules from publication PMC4872099 (Nucleic Acids Research, 2016) can be followed below.

Values joined by “and” are separate entries in the source; they are usually repeats but may differ in a detail not shown here. Equal values may be shown once.

In series [1] the target is phage T4 gp16 oligomerization domain alone (N- and C-terminal domains deleted) (bacteriophage T4). Nature of the series: SEC. On the technique in general: SEC sorts molecules by how far they enter the pores of the column.
The series “SEC” concerns the molecule itself. Nature of the series: SEC.

On to “phage T4 gp16 oligomerization domain alone (N- and C-terminal domains deleted) (domain or fragment)”, for which the stoichiometry N in series [1] was 11 and 12.

B1: phage T4 small terminase (TerS) gp16, wild type (natural protein, bacteriophage T4, UniProt P17311 1-164, looked up)
chain: MEGLDINKLLDISDLPGIDGEEIKVYEPLQLVEVKSNPQNRTPDLEDDYGVVRRNMHFQQQMLMDAAKIFLETAKNADSPRHMEVFATLMGQMTTTNREILKLHKDMKDITSEQVGTKGAVPTGQMNIQNATVFMGSPTELMDEIGDAYEAQEAREKVINGTTD
Take B1: in the series “SEC”, the binding result is “binds”.

B2: phage T4 gp16 mutant 3M (R98A, K102A, K108A) (natural protein, bacteriophage T4, UniProt P17311 1-164, looked up)
chain: MEGLDINKLLDISDLPGIDGEEIKVYEPLQLVEVKSNPQNRTPDLEDDYGVVRRNMHFQQQMLMDAAKIFLETAKNADSPRHMEVFATLMGQMTTTNAEILALHKDMADITSEQVGTKGAVPTGQMNIQNATVFMGSPTELMDEIGDAYEAQEAREKVINGTTD
B2: in “SEC”, the binding result is listed as “binds”.

B3: phage T4 gp16 mutant 4M (R98A, K102A, K105A, K108A) (natural protein, bacteriophage T4, UniProt P17311 1-164, looked up)
chain: MEGLDINKLLDISDLPGIDGEEIKVYEPLQLVEVKSNPQNRTPDLEDDYGVVRRNMHFQQQMLMDAAKIFLETAKNADSPRHMEVFATLMGQMTTTNAEILALHADMADITSEQVGTKGAVPTGQMNIQNATVFMGSPTELMDEIGDAYEAQEAREKVINGTTD
B3: in the series “SEC”, the “stoichiometry N” value is approximately 6.

B4: phage T4 gp16 N-C fusion (amino acids 36-118 deleted; lacks helix alpha1 and helix alpha2) (natural protein, bacteriophage T4, UniProt P17311 1-164, looked up)
chain: MEGLDINKLLDISDLPGIDGEEIKVYEPLQLVEVKGAVPTGQMNIQNATVFMGSPTELMDEIGDAYEAQEAREKVINGTTD
On to B4, for which the “stoichiometry N” value in “SEC” stood at 2.
